Where a chain is given by its changes, count along the chain named.
Biological target: GPCMV gB (glycoprotein B of Guinea Pig CMV strain V545/82) (guinea pig CMV (GPCMV))
Assay: cell-based or functional assay

B1: 2N9 human anti-CMV antibody (antibody, V domains shown)
VH: QVQLVESGGGVVQPGRSLRLSCAASGFTFSSNGIHWVRQAPGKGLDWVAVISSDANDKQYADSVKGRFTISRDNSKNMVYLQMNSLRVEDTAVYFCARDGTCSGGNCYSGLIDYWGRGILVTVSS
VL: EIVLTQSPATLSLSPGERATLSCRASQSVGGYLAWYQQKPGQAPRLLIYDASIRATGIPARFSGSGSGTDFTLTISSLEPEDFAVYYCHQRSNWPPLTFGGGTKVDIKR
- neutralization of GPCMV V545/82 entry into JH4 cells (highest concentration tested, no effect): > 300 µg/mL

B2: 5P9 human anti-CMV antibody (antibody, V domains shown)
VH: QVQLVESGGGVIQPGRSLRLSCVASKFIFSNHGIHWVRQAPGKGLEWVAVISKDGTNAHYADSVRGRFSISRDNSKDTVFLEMRSLRPEDTAVYYCAREGRCIEEKCYSGQIDYWGQGSLVTVSS
VL: B1 VL with V3L, G31R, L33M, K39R, E79Q, P80T, V85I, H89Q, N93S, D106E
- neutralization of GPCMV V545/82 entry into JH4 cells (highest concentration tested, no effect): > 300 µg/mL

B3: 2F10 human anti-CMV antibody (antibody, V domains shown)
VH: QVHLVESGGGVVQPGRALRLSCAATGFTFSNHGIHWVRQAPGKGLEWLAVISSDGDDDRYADSVKGRFSVSRDNSKNTVHLQMNGLRPDDTAIYFCARDGRCGEPKCYSGLPDYWGRGTLVTVSS
VL: B1 VL with E17D, I48L, I53N, V85L, H89L, S92N, N93T, D106E
- neutralization of GPCMV V545/82 entry into JH4 cells (highest concentration tested, no effect): > 300 µg/mL

B4: 4P12 human anti-CMV antibody (antibody, V domains shown)
VH: B2 VH with K106N
VL: B1 VL with V3L, G31R, L33M, K39R, E79Q, V85I, H89Q, N93S, D106E
- neutralization of GPCMV V545/82 entry into JH4 cells (highest concentration tested, no effect): > 300 µg/mL

Reference: patent US20120263734A1 (THERACLONE SCIENCES, published 2012)
